Reference: PMC4614383, “Structural insights into the cooperative remodeling of membranes by amphiphysin/BIN1” (Scientific Reports, 2015)

Target: the molecule itself
Assay: cryo-EM 2D class averages and power spectra; 2D classification (Relion) of segments of tubes remodeled by N-BAR, N-BAR-deltaH0 or FL; liposomes 2POPG:1POPE; periodic spacings read from the power spectra; BAR dimers to a lattice on the membrane

B1: full length Drosophila amphiphysin/BIN1 (FL, residues 1-602) (natural protein, UniProt Q7KLE5 1-602, looked up)
chain: MTENKGIMLAKSVQKHAGRAKEKILQNLGKVDRTADEIFDDHLNNFNRQQASANRLQKEFNNYIRCVRAAQAASKTLMDSVCEIYEPQWSGYDALQAQTGASESLWADFAHKLGDQVLIPLNTYTGQFPEMKKKVEKRNRKLIDYDGQRHSFQNLQANANKRKDDVKLTKGREQLEEARRTYEILNTELHDELPALYDSRILFLVTNLQTLFATEQVFHNETAKIYSELEAIVDKLATESQRGSNTLRKQTSNPIKTSSPVQSPVNKLNNANINSNYQNQITTNGGSSLANSPTSTSSSLQEPRFDSVSSTPEPRPESPAAALVSATPSSPVENGVTTKSLERPELSGLNASAKATTTTQTSPTEDKAVVSEAVKPSETEGAAVAASVTPAPPATPAQINGNNNEPSIVKEGGKQPKELPSTTSNAEAAAEAAANNGNSIEEHKQKKLGNDTTVTATETVTVTQHSVTSTDTDNIVTISDTNTDTDTKTSTGTSQKGRPVPVVNRHSVNNLNKNPFEDDDERIYEVPADANTADLPPGVLYRVKATYGYAKEDVDELSFEIGDLIRVIEYDDPEDQEEGWLMGQKEGTNEKGLFPANFTRPI
notes: amphiphysin/BIN1, Drosophila, full length, residues 1-602; Cloned either with a 3C-cleavable hexahistidine tag or a SenP2-cleavable sumo-hexahistidine tag; source: E. coli BL21 gold, purified (His-Trap, anion exchange, SEC)
  binding result: binds
